In the Human Domainome abundance scans (Beltran et al. 2025):
± gives the uncertainty stated by the source.

B1: Androgen receptor, residues 557 to 632; numbered along this chain, P10275 (parent)
chain: QKTCLICGDEASGCHYGALTCGSCKVFFKRAAEGKQKYLCASRNDCTIDKFRRKNCPSCRLRKCYEAGMTLGARKL

Variants of: B1
Test: abundance fitness (aPCA) (normalised: wild type 0, dead -1); higher = more abundant; growth selection in yeast, the domain comes from the species named
Details: Homo sapiens

Row | Variant | abundance fitness
1 | T47I | -0.03 ± 0.058
2 | N55E | -0.407 ± 0.29
3 | C40V | -0.693 ± 0.096
4 | A73V | -0.054 ± 0.067
5 | C56H | -0.804 ± 0.28
6 | K25N | 0.014 ± 0.032
7 | A73G | -0.06 ± 0.06
8 | V26D | 0.043 ± 0.077
9 | A73E | 0.013 ± 0.068
10 | D45E | -0.037 ± 0.082
11 | H15I | -0.063 ± 0.2
12 | H15N | -0.157 ± 0.088
13 | R52W | -0.311 ± 0.16
14 | Y16W | -0.122 ± 0.034
15 | L19R | -0.006 ± 0.044
16 | R30V | -0.066 ± 0.065
17 | T47C | -0.077 ± 0.035
18 | A18R | -0.24 ± 0.039
19 | Y16Q | -0.487 ± 0.074
20 | R74W | -0.19 ± 0.081
21 | L5K | -0.053 ± 0.06
22 | G13M | -0.163 ± 0.083
23 | K37D | -0.009 ± 0.1
24 | C21H | -0.602 ± 0.15

Row | Variant | abundance fitness
25 | N55C | -0.075 ± 0.14
26 | V26L | 0.008 ± 0.033
27 | T20A | -0.041 ± 0.035
28 | A31R | -0.486 ± 0.06
29 | C24I | -0.904 ± 0.076
30 | C24V | -0.907 ± 0.048
31 | C14E | 0.002 ± 0.081
32 | L19Q | 0.059 ± 0.11
33 | K37Y | -0.178 ± 0.12
34 | K35M | 0.018 ± 0.07
35 | T47D | -0.017 ± 0.047
36 | S58Q | -0.134 ± 0.083
37 | G17M | -0.229 ± 0.057
38 | K63I | -0.146 ± 0.095
39 | G72E | 0.126 ± 0.088
40 | T20H | -0.299 ± 0.15
41 | C46N | -0.711 ± 0.14
42 | T47W | -0.244 ± 0.039
43 | Y16C | -0.566 ± 0.081
44 | N44L | -0.251 ± 0.059
45 | G13T | -0.057 ± 0.094
46 | A41N | -0.165 ± 0.083
47 | S12Q | 0.049 ± 0.095
48 | S58E | 0.133 ± 0.12

Row | Variant | abundance fitness
49 | E33Q | 0.023 ± 0.075
50 | C4E | -0.563 ± 0.16
51 | Y38A | -0.057 ± 0.067
52 | S58G | 0.059 ± 0.071
53 | C14I | 0.085 ± 0.089
54 | I48D | -0.331 ± 0.059
55 | L76S | -0.084 ± 0.086
56 | C24F | -1.06 ± 0.099
57 | K37R | -0.054 ± 0.045
58 | T47M | -0.086 ± 0.086
59 | A31G | -0.086 ± 0.045
60 | T47N | -0.067 ± 0.053
61 | S58W | -0.458 ± 0.16
62 | C56L | -0.498 ± 0.12
63 | G13E | -0.274 ± 0.13
64 | R52T | 0.067 ± 0.082
65 | S58R | -0.09 ± 0.059
66 | C64F | -0.745 ± 0.48
67 | D9A | -0.089 ± 0.065
68 | L39T | -0.032 ± 0.035
69 | C46Q | -0.8 ± 0.1
70 | T3G | -0.078 ± 0.06
71 | H15A | -0.151 ± 0.078
72 | C64K | -0.805 ± 0.29

Row | Variant | abundance fitness
73 | C24D | -0.695 ± 0.064
74 | A32F | -0.197 ± 0.065
75 | K35L | -0.135 ± 0.044
76 | A41I | -0.275 ± 0.098
77 | Q1D | 0.071 ± 0.14
78 | R52E | -0.003 ± 0.091
79 | R74L | -0.18 ± 0.089
80 | A73P | -0.44 ± 0.15
81 | C64G | -0.606 ± 0.11
82 | G72L | -0.062 ± 0.068
83 | C4M | -0.679 ± 0.37
84 | K29S | -0.248 ± 0.11
85 | C56N | -0.968 ± 0.24
86 | K50Q | -0.075 ± 0.11
87 | K25T | 0.005 ± 0.025
88 | A41G | -0.091 ± 0.075
89 | P57M | -0.09 ± 0.1
90 | K50P | -0.007 ± 0.1
91 | G13R | -0.2 ± 0.061
92 | C46T | -0.713 ± 0.085
93 | R74T | 0.088 ± 0.092
94 | L19E | 0.034 ± 0.043
95 | L71T | 0.073 ± 0.059
96 | T20S | 0.047 ± 0.046

Row | Variant | abundance fitness
97 | K63C | -0.143 ± 0.087
98 | Q1Y | 0.172 ± 0.18
99 | H15Q | -0.175 ± 0.12
100 | P57R | -0.1 ± 0.057
101 | F27R | -0.977 ± 0.067
102 | T3S | -0.059 ± 0.079
103 | A73D | -0.026 ± 0.07
104 | C24E | -0.909 ± 0.063
105 | K37F | -0.331 ± 0.26
106 | N55G | -0.073 ± 0.11
107 | S12M | -0.026 ± 0.086
108 | A41C | -0.18 ± 0.13
109 | R74A | -0.119 ± 0.068
110 | Q36R | -0.144 ± 0.051
111 | Y38N | -0.245 ± 0.094
112 | F27P | -0.655 ± 0.067
113 | A18S | -0.142 ± 0.048
114 | G8L | -0.146 ± 0.06
115 | D49M | -0.448 ± 0.21
116 | G13W | -0.571 ± 0.12
117 | C46D | -0.495 ± 0.21
118 | R30H | 0.114 ± 0.074
119 | Y38R | -0.239 ± 0.058
120 | G34D | -0.372 ± 0.49

Row | Variant | abundance fitness
121 | K63R | -0.079 ± 0.071
122 | G22K | -0.114 ± 0.051
123 | K63G | -0.4 ± 0.16
124 | K29E | 0.202 ± 0.11
125 | K37W | -0.168 ± 0.071
126 | Y16K | -0.473 ± 0.08
127 | D45I | -0.07 ± 0.1
128 | S23K | -0.142 ± 0.039
129 | L39K | 0.094 ± 0.036
130 | A41P | -0.12 ± 0.09
131 | S23I | -0.836 ± 0.36
132 | S58Y | -0.202 ± 0.064
133 | T3Q | -0.04 ± 0.097
134 | Q1P | -0.439 ± 0.23
135 | C7E | -1.03 ± 0.39
136 | Q1N | -0.053 ± 0.36
137 | C14Q | -0.133 ± 0.092
138 | K29Y | -0.148 ± 0.14
139 | L39P | -0.086 ± 0.038
140 | Y65M | -0.093 ± 0.09
141 | G17Q | -0.357 ± 0.05
142 | Y65I | -0.081 ± 0.24
143 | C40E | -0.576 ± 0.25
144 | K29M | -0.245 ± 0.15

Row | Variant | abundance fitness
145 | D49H | -0.382 ± 0.22
146 | D49K | -0.317 ± 0.16
147 | G72R | -0.009 ± 0.069
148 | D45K | 0.101 ± 0.12
149 | G72W | -0.076 ± 0.12
150 | C14S | -0.105 ± 0.069
151 | T20C | 0.002 ± 0.064
152 | L71I | -0.021 ± 0.068
153 | D49V | -0.512 ± 0.1
154 | V26T | -0.002 ± 0.04
155 | L5D | -0.065 ± 0.061
156 | Y16V | -0.609 ± 0.044
157 | S12W | -0.181 ± 0.085
158 | A73K | -0.2 ± 0.12
159 | G17S | -0.319 ± 0.05
160 | K25W | -0.077 ± 0.025
161 | C40W | -1.16 ± 0.2
162 | L5C | -0.07 ± 0.078
163 | C56I | -0.782 ± 0.22
164 | T3K | -0.252 ± 0.1
165 | H15W | 0.097 ± 0.062
166 | R30E | 0.019 ± 0.14
167 | K25C | 0.012 ± 0.027
